Article PMC5493754, “Myosin 7 and its adaptors link cadherins to actin” (Nature Communications, 2017)

T1: YFP-Myosin 7a MF2 (human, UniProt Q13402-1 1702-2215)
T1 construct: Myosin 7a, human, MF2, residues 1702-2215 of UniProt Q13402-1; pET14-YFP vector; also called ^YFPM7a MF2; source: E. coli (BL21-AI, BL21 (DE3) Rosetta or BL21-Gold (DE3)), purified (Histrap, CaptoQ, gel filtration)
T1 sequence (looked up): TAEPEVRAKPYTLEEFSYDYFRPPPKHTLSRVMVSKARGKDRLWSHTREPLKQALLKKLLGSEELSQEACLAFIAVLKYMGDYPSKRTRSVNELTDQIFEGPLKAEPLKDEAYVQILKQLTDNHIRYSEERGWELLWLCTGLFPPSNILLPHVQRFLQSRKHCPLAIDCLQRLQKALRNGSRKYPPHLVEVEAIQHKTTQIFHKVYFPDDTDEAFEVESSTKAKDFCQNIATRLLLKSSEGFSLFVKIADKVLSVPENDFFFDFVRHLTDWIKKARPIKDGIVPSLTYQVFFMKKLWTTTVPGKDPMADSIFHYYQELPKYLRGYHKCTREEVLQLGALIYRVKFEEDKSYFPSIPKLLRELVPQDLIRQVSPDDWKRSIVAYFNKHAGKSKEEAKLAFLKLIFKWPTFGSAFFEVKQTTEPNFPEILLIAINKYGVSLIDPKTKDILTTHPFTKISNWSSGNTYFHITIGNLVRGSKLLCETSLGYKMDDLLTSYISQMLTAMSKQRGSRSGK

T2: Myosin 7b MF2 L2083W (human, UniProt Q6PIF6 1605-2116, L2083W)
T2 construct: Myosin 7b, human, MF2, residues 1605-2116 of UniProt Q6PIF6; also called M7b MF2 L2083W; source: E. coli, purified similarly as wild type (Histrap, CaptoQ, gel filtration)
T2 sequence (looked up): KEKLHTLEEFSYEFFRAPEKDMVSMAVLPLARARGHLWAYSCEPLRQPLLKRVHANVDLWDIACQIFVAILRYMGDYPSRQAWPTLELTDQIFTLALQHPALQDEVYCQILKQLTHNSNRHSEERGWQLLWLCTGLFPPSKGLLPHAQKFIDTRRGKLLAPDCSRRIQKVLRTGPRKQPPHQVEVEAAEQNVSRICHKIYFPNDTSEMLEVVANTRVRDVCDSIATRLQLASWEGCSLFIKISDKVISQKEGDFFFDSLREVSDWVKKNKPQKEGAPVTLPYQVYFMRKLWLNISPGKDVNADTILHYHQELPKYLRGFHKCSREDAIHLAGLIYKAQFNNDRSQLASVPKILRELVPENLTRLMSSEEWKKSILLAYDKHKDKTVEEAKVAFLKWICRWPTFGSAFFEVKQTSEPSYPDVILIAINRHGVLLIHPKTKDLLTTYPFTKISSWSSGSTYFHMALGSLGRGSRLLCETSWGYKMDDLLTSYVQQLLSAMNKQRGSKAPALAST

T3: Myosin 7b MF2 (human, UniProt Q6PIF6 1605-2116)
T3 construct: also called M7b MF2; Myo7b MF2; source: E. coli (BL21-AI, BL21 (DE3) Rosetta or BL21-Gold (DE3)), purified (Histrap, CaptoQ, gel filtration)
T3 sequence (looked up): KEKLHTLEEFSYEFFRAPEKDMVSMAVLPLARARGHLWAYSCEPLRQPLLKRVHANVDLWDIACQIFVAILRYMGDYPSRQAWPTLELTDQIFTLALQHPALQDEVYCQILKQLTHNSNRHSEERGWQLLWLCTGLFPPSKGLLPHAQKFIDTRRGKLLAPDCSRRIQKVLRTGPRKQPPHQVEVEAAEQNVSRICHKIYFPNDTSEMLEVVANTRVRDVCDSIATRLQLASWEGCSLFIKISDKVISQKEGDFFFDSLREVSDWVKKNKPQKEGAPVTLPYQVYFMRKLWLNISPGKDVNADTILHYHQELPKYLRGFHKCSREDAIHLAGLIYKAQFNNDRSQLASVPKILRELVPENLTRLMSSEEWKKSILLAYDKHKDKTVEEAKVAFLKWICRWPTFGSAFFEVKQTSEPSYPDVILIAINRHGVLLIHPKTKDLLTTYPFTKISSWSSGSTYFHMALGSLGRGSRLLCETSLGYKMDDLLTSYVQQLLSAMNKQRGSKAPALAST

T4: Harmonin NPDZ1 (non-fluorescent, as used in MST and SEC-MALS) (human, UniProt Q9Y6N9-1 1-197)
T4 construct: Harmonin-a1 (USH1C), human, N-terminal domain and PDZ1, residues 1-197 of UniProt Q9Y6N9-1; source: E. coli BL21 (DE3) Rosetta, purified (Glutathione Sepharose 4B, size-exclusion chromatography)
T4 sequence (looked up): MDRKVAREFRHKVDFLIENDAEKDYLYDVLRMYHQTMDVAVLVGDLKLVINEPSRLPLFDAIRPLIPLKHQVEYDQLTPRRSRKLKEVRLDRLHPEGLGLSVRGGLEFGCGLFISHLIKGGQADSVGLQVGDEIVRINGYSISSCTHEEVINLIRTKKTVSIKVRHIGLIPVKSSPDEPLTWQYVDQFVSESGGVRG

B1: Harmonin-a PDZ3c (non-fluorescent, as used in MST) (domain or fragment, human, UniProt Q9Y6N9-1 428-552, looked up)
chain: QDFRKYEEGFDPYSMFTPEQIMGKDVRLLRIKKEGSLDLALEGGVDSPIGKVVVSAVYERGAAERHGGIVKGDEIMAINGKIVTDYTLAEAEAALQKAWNQGGDWIDLVVAVCPPKEYDDELTFF
notes: Harmonin-a1 (USH1C), human, PDZ3 plus C-terminal peptide, residues 428-552 of UniProt Q9Y6N9-1; The methods say only that samples for ITC or crystallisation were digested with TEV protease; also called PDZ3c (isoA); source: E. coli BL21 (DE3) Rosetta, purified (Glutathione Sepharose 4B, size-exclusion chromatography)
B2: YFP-Harmonin-a PDZ3c (domain or fragment, human, UniProt Q9Y6N9-1 428-552, looked up)
chain: QDFRKYEEGFDPYSMFTPEQIMGKDVRLLRIKKEGSLDLALEGGVDSPIGKVVVSAVYERGAAERHGGIVKGDEIMAINGKIVTDYTLAEAEAALQKAWNQGGDWIDLVVAVCPPKEYDDELTFF
notes: Harmonin-a1 (USH1C), human, residues 428-552 of UniProt Q9Y6N9-1; also called ^YFPPDZ3c (isoA); source: E. coli BL21 (DE3) Rosetta, purified (Glutathione Sepharose 4B, size-exclusion chromatography)

Tests used:
Test in all cases: MST; YFP-fused partner constant at 100 nM, non-fluorescent protein titrated (16 two-fold dilutions); 20 mM Hepes pH 7.0, 100 mM NaCl, 1 mM EGTA, 0.5 mM TCEP, 0.05% Tween 20; Monolith NT.115
Conditions in all cases: both partners purified
YFP-Myosin 7a MF2 = target: T1, YFP-Myosin 7a MF2
Myosin 7b MF2 L2083W = target: T2, Myosin 7b MF2 L2083W
Myosin 7b MF2 = target: T3, Myosin 7b MF2
[1] = target: T4, Harmonin NPDZ1 (non-fluorescent, as …)

| Binder | Kd (YFP-Myosin 7a MF2) [nM] | Kd (Myosin 7b MF2 L2083W) [nM] | Kd (Myosin 7b MF2) [nM] | Kd [1] [nM] |
| --- | --- | --- | --- | --- |
| B1 | 1400 ± 200 |  |  |  |
| B2 |  | > 300000 | 1900 ± 600 | 14200 |
